In patent publication US20230416345A1, “NEW TYPE II COLLAGEN BINDING PROTEINS” (Navigo Proteins GmbH, priority 2020, published 2023):

What was measured:
[1] = target: T1, hCol2 (human Type II collagen) (Homo sapiens, UniProt P02458); assay: Binding analysis by SPR (Biacore 3000) vs human type II collagen; details: for Affinity [SPR] vs hCol2: dimers or tetramers, Langmuir 1:1 model
T1 construct: purchased Chondrex
Protocol: (§1) Proteins with affinity tag were purified by affinity chromatography and size exclusion. After affinity chromatography purification using Strep-Tactin Superflow high capacity cartridges (IBA Lifesciences) a size exclusion chromatography (SEC) was performed using an Äkta system and a Superdex™ 200 HiLoad 16/600 column (Cytiva). Fused variants with Aflibercept were purified via MabSelect SuRe (Cytiva) affinity chromatography followed by a size exclusion chromatography (SEC) using an Äkta system and a Superdex™ 200 HiLoad 16/600 column (Cytiva). All chromatography processing steps were carried out on AKTA systems using matrices from Cytiva. Homogenous species of all purified ligands were obtained; no aggregation was detected. Following SOS-PAGE analysis positive fractions were pooled and their protein concentrations were measured. Further analysis included SOS-PAGE, SE-HPLC and RP-HPLC. Protein concentrations were determined by absorbance measurement at 280 nm using the molar absorbent coefficient. Reversed phase chromatography (RP-HPLC) was performed using a Dionex HPLC system and a PLRP-S (5 μm, 300 Å) column (Agilent). Analytic size exclusion chromatography (SE-HPLC) was performed using a Dionex HPLC system and a Superdex200 increase 5/150 GL (Cytiva). Binding of Collagen II was evaluated by SPR measurements using a Biacore 3000 system. Purified Collagen II was obtained from Chondrex.inc and VEGF-165 was obtained from Millipore. Targets were immobilized on a CM5-Sensor via NHS/EDC chemistry (immobilization level ˜1000 RU). Binding molecules were injected at different concentration and affinity was calculated by langmuir 1:1 binding model.
The purified proteins were immobilized on a CM-5 sensor chip (GE Healthcare) using NHS/EDC after PDEA activation resulting in 110-140 RU with a Biacore 3000 system (GE Healthcare). The chip was equilibrated with SPR running buffer (PBS 0.05% Tween pH 7.3). Upon binding, target analyte was accumulated on the surface increasing the refractive index. This change in the refractive index was measured in real time and plotted as response or resonance units versus time. The analytes were applied to the chip in serial dilutions with a flow rate of 30 μl/min. The association was performed for 120 seconds and the dissociation for 120 seconds. After each run, the chip surface was regenerated with 30 μl regeneration buffer (10 mM glycine pH 2.0) and equilibrated with running buffer.
Binding studies were carried out by the use of the BIAcore 3000 (GE Healthcare); data evaluation was operated via the BIAevaluation 3.0 software, provided by the manufacturer, using the Langmuir 1:1 model (RI=0). Evaluated dissociation constants (KD) were standardized against the immobilized protein and indicated. Shown is the change in refractive index measured in real time and plotted as response or resonance unit [RU] versus time [sec].

[2] = target: T2, recombinant human collagen type II (h Col II) (Homo sapiens, UniProt P02458); assay: KD-determination by ELISA vs human collagen type II; assay type: binding; details: for binding affinity (KD) to type II collagen by ELISA, in words: tetramers: of different species
T2 construct: purchased Chondrex CHX-20051
Protocol: (§2) High binding plates (Greiner, 781061) were immobilized with 2.5 μg/ml recombinant human collagen type II (h Col II, Chondrex, CHX-20051), rabbit collagen type II (rbCol II, prepared from rabbit eyes), porcine collagen type II (p Col II, prepared from porcine eyes), human collagen type I, (h Col I, Sigma, C5483-1MG), human collagen type V (h Col V, Abcam, ab7537), human collagen type III (h Col Ill, Abcam, ab7535) and 67B89 (domain of fibronectin, produced in E. coli) respectively over night at 4° C. ELISA-plates were washed 3 times with PBST (PBS+ 0.1% Tween) and blocked with 3% BSA/0.5% Tween/PBS 2 h at RT. After washing with PBST, dilution series of 1.1 μM to 7×10^−4 nM of dimers (CID 211999, CID 212000), dilution series of 100 nM to 7×10^−6 nM of tetramers (CID 212001 and CID 212704) and dilution series of 10 μM to 2 nM of dimer (CID 212705) were incubated on ELISA-plates 1 h at rt. Plates were washed with PBST and incubated with biotinylated anti-StrepTag-ab (Antikörper-online, ABIN1573895) with a dilution of 1:10.000 for 1 h at rt. The binding was visualized with a-rabbit-IgG-HRP (Sigma, A9169) with a dilution of 1:10.000 and as substrate TMB Plus von KEM EN TEC Diagnostic, Kat-Nr. 4395.

[3] = Soluble expression in Escherichia coli BL21(DE3); assay type: physicochemical; details: expression in E. coli BL21(DE3)
Protocol: Variants with affinity tag were expressed in Escherichia coli BL21(DE3) using a low copy plasmid system under regulation of a T7 promoter. Proteins were produced in soluble form after induction by lactose included in the medium (autoinduction medium). BL21 (DE3) competent cells were transformed with the expression plasmid, spread onto selective agar plates (kanamycin) and incubated overnight at 37° C. Precultures were inoculated from single colony in 3 ml 2×YT medium supplemented with 50 μg/ml kanamycin and cultured for 6 hours at 37° C. at 200 rpm in a conventional orbital shaker in culture tubes. […] Cultures were transferred to an orbital shaker and incubated at 30° C. and 200 rpm. Recombinant protein expression was induced by metabolizing glucose and subsequently allowing lactose to enter the cells. Cells were grown overnight for approx. 17 hours to reach a final OD600 of about 2-4. Before the harvest, the OD600 was measured, samples adjusted to 0.6/OD600 were withdrawn, pelleted and frozen at −20° C. To collect biomass cells were centrifuged at 12000×g for 15 min at 22° C. Pellets were weighed (wet weight). Cells were stored at −20° C. before processing.
as §1

human collagen type III = target: T3, human collagen type III (Homo sapiens, UniProt P02461); assay: ELISA specificity vs human collagen type III; assay type: binding
T3 construct: purchased Abcam ab7535
T3 sequence (P02461 154-1221 limits assumed): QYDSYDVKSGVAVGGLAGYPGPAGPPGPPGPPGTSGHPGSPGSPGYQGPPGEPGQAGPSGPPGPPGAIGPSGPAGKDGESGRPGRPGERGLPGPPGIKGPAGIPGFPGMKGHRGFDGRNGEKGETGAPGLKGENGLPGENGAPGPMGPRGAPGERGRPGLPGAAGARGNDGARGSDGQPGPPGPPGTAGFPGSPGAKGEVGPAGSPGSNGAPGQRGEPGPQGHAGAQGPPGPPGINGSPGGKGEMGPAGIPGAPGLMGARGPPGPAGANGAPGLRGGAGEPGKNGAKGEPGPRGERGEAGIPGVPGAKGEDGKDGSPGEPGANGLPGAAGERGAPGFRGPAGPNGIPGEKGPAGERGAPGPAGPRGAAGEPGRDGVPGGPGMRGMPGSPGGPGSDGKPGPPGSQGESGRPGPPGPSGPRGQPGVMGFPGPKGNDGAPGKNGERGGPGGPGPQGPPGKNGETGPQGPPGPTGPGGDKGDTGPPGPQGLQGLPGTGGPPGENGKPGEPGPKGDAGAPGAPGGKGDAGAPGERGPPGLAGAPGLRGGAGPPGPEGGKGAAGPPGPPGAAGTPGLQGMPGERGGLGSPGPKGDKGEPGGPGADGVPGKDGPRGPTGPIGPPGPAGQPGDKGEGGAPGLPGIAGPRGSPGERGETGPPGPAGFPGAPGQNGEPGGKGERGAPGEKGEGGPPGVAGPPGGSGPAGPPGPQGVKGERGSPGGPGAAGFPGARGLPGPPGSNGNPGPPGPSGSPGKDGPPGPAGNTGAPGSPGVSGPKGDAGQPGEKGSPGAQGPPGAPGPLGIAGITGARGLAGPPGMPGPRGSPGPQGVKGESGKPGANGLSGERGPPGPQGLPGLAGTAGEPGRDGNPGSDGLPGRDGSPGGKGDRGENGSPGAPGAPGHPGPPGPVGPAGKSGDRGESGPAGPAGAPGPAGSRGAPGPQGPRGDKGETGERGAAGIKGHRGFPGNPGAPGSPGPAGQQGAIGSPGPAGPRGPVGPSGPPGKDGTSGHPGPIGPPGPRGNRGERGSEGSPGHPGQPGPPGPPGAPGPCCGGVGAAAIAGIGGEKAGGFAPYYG
Protocol: as §2

[4] = target: T4, human collagen type V (h Col V) (Homo sapiens, UniProt P05997+P20908); assay: ELISA specificity vs human collagen type V; assay type: binding
T4 construct: purchased Abcam ab7537
Protocol: as §2

[5] = target: T5, 67B89 (domain of fibronectin) (Homo sapiens, UniProt P02751); assay: ELISA specificity vs 67B89; assay type: binding
T5 construct: unrelated fibronectin domain EDB (67B89) could be observed; made in house; host or cells: E. coli
Protocol: as §2

[6] = target: T6, human collagen type I (h Col I) (Homo sapiens, UniProt P02452+P08123); assay: ELISA specificity vs human collagen type I; assay type: binding
T6 construct: purchased Sigma C5483-1MG
Protocol: as §2

T1 sequence (P02458 182-1241): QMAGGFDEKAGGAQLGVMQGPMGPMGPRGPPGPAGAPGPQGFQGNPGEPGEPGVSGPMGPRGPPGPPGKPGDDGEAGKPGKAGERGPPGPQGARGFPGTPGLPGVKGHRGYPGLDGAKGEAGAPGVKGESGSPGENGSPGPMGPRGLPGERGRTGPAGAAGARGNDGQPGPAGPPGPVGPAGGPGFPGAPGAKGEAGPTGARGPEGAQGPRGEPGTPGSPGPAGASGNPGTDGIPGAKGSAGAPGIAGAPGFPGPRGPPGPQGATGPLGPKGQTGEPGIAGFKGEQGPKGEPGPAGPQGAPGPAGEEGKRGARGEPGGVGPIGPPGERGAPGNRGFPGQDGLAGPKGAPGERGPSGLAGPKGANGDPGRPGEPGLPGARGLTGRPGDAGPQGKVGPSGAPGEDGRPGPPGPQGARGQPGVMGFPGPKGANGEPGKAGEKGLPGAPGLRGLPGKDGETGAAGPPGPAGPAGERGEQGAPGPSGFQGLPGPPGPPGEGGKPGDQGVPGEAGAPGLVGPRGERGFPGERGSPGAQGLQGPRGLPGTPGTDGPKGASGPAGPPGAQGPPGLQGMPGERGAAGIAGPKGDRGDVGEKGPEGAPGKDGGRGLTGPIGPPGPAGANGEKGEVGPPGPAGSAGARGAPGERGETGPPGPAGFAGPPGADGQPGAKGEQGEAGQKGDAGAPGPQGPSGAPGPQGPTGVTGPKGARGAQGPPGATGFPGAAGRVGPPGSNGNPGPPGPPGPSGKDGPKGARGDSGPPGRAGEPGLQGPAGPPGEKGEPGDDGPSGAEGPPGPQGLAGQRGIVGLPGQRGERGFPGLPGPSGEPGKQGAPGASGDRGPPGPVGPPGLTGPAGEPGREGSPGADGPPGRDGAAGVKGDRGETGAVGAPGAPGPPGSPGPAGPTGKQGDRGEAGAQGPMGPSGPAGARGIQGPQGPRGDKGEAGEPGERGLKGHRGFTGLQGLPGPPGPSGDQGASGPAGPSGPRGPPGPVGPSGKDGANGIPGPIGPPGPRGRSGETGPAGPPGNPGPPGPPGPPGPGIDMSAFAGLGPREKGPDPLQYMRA
T2 sequence (P02458 182-1241): as above
T6 sequence (P02452 162-1218 limits assumed): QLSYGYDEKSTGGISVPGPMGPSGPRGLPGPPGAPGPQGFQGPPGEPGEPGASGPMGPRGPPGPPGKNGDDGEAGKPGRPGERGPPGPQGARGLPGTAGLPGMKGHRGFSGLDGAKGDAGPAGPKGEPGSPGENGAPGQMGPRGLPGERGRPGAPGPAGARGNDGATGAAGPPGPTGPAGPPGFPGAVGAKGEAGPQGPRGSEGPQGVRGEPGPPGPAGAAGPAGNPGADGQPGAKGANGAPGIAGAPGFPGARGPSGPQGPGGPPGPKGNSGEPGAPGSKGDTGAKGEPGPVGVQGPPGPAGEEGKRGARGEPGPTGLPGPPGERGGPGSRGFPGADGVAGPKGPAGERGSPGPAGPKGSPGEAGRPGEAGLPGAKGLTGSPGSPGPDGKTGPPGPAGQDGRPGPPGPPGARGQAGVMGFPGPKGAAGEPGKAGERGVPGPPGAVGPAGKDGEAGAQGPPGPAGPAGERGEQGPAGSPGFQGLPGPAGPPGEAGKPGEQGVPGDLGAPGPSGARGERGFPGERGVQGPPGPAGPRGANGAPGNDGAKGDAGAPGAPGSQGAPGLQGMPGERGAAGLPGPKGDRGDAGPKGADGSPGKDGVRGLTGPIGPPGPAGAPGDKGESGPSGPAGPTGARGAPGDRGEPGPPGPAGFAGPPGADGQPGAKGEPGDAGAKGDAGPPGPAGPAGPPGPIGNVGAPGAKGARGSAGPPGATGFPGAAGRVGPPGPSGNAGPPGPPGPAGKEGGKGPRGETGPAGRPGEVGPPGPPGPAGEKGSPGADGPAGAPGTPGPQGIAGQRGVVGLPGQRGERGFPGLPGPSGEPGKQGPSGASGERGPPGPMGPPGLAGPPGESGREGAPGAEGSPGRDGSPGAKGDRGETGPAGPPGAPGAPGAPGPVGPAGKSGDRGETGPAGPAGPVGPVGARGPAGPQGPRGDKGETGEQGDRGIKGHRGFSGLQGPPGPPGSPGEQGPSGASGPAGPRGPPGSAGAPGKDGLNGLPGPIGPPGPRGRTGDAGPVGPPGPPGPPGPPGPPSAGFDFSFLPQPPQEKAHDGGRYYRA
T6 sequence (P08123 80-1119 limits assumed): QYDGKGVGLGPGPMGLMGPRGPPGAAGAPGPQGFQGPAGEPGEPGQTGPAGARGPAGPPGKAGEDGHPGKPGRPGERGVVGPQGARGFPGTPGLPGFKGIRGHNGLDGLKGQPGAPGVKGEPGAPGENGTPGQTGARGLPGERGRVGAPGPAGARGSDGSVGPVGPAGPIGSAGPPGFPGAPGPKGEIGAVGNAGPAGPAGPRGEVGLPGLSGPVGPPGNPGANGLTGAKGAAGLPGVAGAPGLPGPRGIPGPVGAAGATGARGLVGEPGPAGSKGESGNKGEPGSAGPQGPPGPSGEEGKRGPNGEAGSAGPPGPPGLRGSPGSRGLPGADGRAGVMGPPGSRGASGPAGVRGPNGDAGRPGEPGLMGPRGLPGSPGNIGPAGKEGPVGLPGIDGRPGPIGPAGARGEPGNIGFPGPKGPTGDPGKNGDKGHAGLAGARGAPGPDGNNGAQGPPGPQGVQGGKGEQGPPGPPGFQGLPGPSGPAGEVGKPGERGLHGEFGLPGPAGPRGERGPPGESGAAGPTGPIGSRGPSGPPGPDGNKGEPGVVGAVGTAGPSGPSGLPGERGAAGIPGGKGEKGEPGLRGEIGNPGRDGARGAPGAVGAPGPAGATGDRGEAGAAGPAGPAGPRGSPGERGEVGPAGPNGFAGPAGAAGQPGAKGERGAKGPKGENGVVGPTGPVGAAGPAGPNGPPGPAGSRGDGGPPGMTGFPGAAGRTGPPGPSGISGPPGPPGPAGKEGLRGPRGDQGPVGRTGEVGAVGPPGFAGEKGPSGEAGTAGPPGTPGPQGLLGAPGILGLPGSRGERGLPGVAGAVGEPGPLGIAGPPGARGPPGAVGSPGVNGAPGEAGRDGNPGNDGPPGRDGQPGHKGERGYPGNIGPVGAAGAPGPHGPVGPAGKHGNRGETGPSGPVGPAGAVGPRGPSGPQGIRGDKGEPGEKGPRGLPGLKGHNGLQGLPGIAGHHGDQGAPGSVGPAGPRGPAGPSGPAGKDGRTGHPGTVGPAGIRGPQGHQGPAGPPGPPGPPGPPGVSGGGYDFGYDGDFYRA
T5 sequence (P02751 1089-1540 limits assumed): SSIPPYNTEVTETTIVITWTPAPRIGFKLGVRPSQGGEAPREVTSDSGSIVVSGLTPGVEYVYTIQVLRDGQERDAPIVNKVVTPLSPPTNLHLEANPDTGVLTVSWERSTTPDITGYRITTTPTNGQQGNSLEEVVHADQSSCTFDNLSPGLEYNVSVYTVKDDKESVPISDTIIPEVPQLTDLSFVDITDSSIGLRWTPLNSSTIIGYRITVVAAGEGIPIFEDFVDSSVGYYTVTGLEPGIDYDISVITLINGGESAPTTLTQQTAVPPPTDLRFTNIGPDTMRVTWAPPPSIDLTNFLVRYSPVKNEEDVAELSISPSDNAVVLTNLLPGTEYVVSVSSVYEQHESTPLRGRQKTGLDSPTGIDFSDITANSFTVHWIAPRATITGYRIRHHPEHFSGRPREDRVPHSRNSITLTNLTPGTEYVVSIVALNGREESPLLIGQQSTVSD

B1: CID 210987: hetero-dimeric binding protein comprising SEQ ID NO: 10 and SEQ ID NO: 6 linked head-to-tail (protein)
chain: IAAKFDEAQQAAFYEILHLPNLTEQQRNYFIQWLRDDPSVSLEVLGTAQRLNDSQAPKIAAKFDEAQQLAFYQILHLENLTEEQRNAFIQSLRDDPSVSLEVLGEAIKLNLSQAPK
modifications: Col2 binding protein (dimer) 210987
Affinity [SPR] vs hCol2 [1]: 169 nM | binding affinity (KD) to human type II collagen (ELISA) [2]: 0.46 µM | Solubility Soluble expression [3]: 80%

B2: CID 210992: heterodimer with SEQ ID NO: 10 as N-terminal monomer (protein)
chain: IAAKFDEAQQAAFYEILHLPNLTEQQRNYFIQWLRDDPSVSLEVLGTAQRLNDSQAPKIAAKFDEAQQLAFYQILHLENLTEEQRNAFIQSLRDDPSVSTEVLGEAEKLNYSQAPK
modifications: Col2 binding protein (dimer) 210992
Solubility Soluble expression [3]: 95%

B3: CID 211027: heterodimer with SEQ ID NO: 10 as N-terminal monomer (protein)
chain: IAAKFDEAQQAAFYEILHLPNLTEQQRNYFIQWLRDDPSVSLEVLGTAQRLNDSQAPKIAAKFDEAQQLAFYQILHLENLTEEQRNAFIQSLRDDPSVSAEVLGEARKLNKSQAPK
modifications: Col2 binding protein (dimer) 211027
Solubility Soluble expression [3]: 85%

B4: CID 211999: dimer of SEQ ID NO: 2 (dimer of directly joint monomers) (protein)
chain: IAAKFDEAQSAADSEILHLPNLTEQQRHYFRRWLSDDPSVSTHILTQAQHLNDDQAPKIAAKFDEAQSAADSEILHLPNLTEQQRHYFRRWLSDDPSVSTHILTQAQHLNDDQAPKSAWSHPQFEK
modifications: Col2 binding protein (dimer of 211261) (CID211999)
binding to type III collagen (ELISA) (human collagen type III): No unspecific binding | binding to type V collagen (ELISA) [4]: No unspecific binding | Affinity [SPR] vs hCol2 [1]: 127 nM | binding affinity (KD) to type II collagen by ELISA, in words [2]: 1-2-digit nM | Solubility Soluble expression [3]: 100% | binding to domain of fibronectin (67B89) (ELISA) [5]: No unspecific binding | binding to type I collagen (ELISA) [6]: No unspecific binding

B5: CID 212001: tetramer of SEQ ID NO: 2 (protein)
chain: IAAKFDEAQSAADSEILHLPNLTEQQRHYFRRWLSDDPSVSTHILTQAQHLNDDQAPKIAAKFDEAQSAADSEILHLPNLTEQQRHYFRRWLSDDPSVSTHILTQAQHLNDDQAPKIAAKFDEAQSAADSEILHLPNLTEQQRHYFRRWLSDDPSVSTHILTQAQHLNDDQAPKIAAKFDEAQSAADSEILHLPNLTEQQRHYFRRWLSDDPSVSTHILTQAQHLNDDQAPKSAWSHPQFEK
modifications: Col2 binding protein (tetramer of 211261) (CID212001)
binding to type III collagen (ELISA) (human collagen type III): No unspecific binding | binding to type V collagen (ELISA) [4]: No unspecific binding | Binding to type II collagen via SPR ([1]; FIG. 3, FIG. 4A): binding to type II collagen with high affinity | Affinity [SPR] vs hCol2 [1]: <0.5 nM | binding affinity (KD) to type II collagen by ELISA, in words [2]: 3 digit-picomolar | Solubility Soluble expression [3]: 100% | binding to domain of fibronectin (67B89) (ELISA) [5]: No unspecific binding | binding to type I collagen (ELISA) [6]: No unspecific binding
